The record followed here is the RNAGym collection of RNA variant scans (doi:10.7554/elife.80360).

The chains are these.
B1: HDV Ribozyme (parent)
chain: GGCCGGCAUGGUCCCAGCCUCCUCGCUGGCGCCGGCUGGGCAACAUUCCGAGGGGACCGUCCCCUCGGUAAUGGCGAAUGGGACCCA

Variants of B1 are the subject of this series. Description: self-cleavage, relative activity (ratio to wild type); higher = more cleavage; co-transcriptional.
As to GGCCGGCAUGGUCCCAGCCUCCUCGCUGGCGCCGGCUGGGCAACAUUCGGAGGGGACUGUCCCCUCGGUAAUGGCGAAUGGGACCCA [C49G C58U], the self-cleavage was 1.05.
For GGCCGGCAUGGUCCCAGCCUCCUCGCUGGCGCCGGCUGGGCAACAUUCGGAGGGGACGGUCCCCUCGGUAAUGGCGAAUGGGACCCA [C49G C58G], the self-cleavage was 0.855.
In the case of GGCCGGCAUGGUCCCAGCCUCCUCGCUGGCGCCGGCUGGGCAACAUUCAGAGGGGACCGUCCCCUCAGUAAUGGCGAAUGGGACCCA [C49A G67A], the self-cleavage turned out to be 1.27.
Then GGCCGGCAUGGUCCCAGCCUCCUCGCUGGCGCCGGCUGGGCAACAUUCGGAGGGGACCGUCCCCUCGGUAAUGGCGUAUGGGACCCA [C49G A77U], with 0.604.
With GGCCGGCAUGGUCCCAGCCUCCUCGCUGGCGCCGGCUGGGCAACAUUCGGAGGGGACCGUCCCCUCGGUAAUGGCGGAUGGGACCCA [C49G A77G], the self-cleavage is 0.536.
Regarding GGCCGGCAUGGUCCCAGCCUCCUCGCUGGCGCCGGCUGGGCAACAUUCAGAGCGGACCGUCCCCUCGGUAAUGGCGAAUGGGACCCA [C49A G53C], the self-cleavage came out at 0.506.
Then GGCCGGCAUGGUCCCAGCCUCCUCGCUGGCGCCGGCUGGGCAACAUUCAGAGAGGACCGUCCCCUCGGUAAUGGCGAAUGGGACCCA [C49A G53A], with 0.816; and GGCCGGCAUGGUCCCAGCCUCCUCGCUGGCGCCGGCUGGGCAACAUUCAGAGGCGACCGUCCCCUCGGUAAUGGCGAAUGGGACCCA [C49A G54C], with 0.843.
With GGCCGGCAUGGUCCCAGCCUCCUCGCUGGCGCCGGCUGGGCAACAUUCAGAGGGGACCGUCCCCACGGUAAUGGCGAAUGGGACCCA [C49A U65A], the self-cleavage is 0.751.
Then GGCCGGCAUGGUCCCAGCCUCCUCGCUGGCGCCGGCUGGGCAACAUUCGGAGGGGACCGUCUCCUCGGUAAUGGCGAAUGGGACCCA [C49G C62U], with 0.831; and GGCCGGCAUGGUCCCAGCCUCCUCGCUGGCGCCGGCUGGGCAACAUUCGGAGGGGACCGUCACCUCGGUAAUGGCGAAUGGGACCCA [C49G C62A], with 0.739; and GGCCGGCAUGGUCCCAGCCUCCUCGCUGGCGCCGGCUGGGCAACAUUCAGAGGGGACCGUCCCCUCGGUAAGGGCGAAUGGGACCCA [C49A U72G], with 0.443.
On to GGCCGGCAUGGUCCCAGCCUCCUCGCUGGCGCCGGCUGGGCAACAUUCAGAGGGGACCGUCCCCUCGGUAAAGGCGAAUGGGACCCA [C49A U72A], for which the self-cleavage was 0.225.
GGCCGGCAUGGUCCCAGCCUCCUCGCUGGCGCCGGCUGGGCAACAUUCAGAGGGGACCGUCCCCUCGGUAACGGCGAAUGGGACCCA [C49A U72C]: the self-cleavage amounted to 0.32.
Turning to GGCCGGCAUGGUCCCAGCCUCCUCGCUGGCGCCGGCUGGGCAACAUUCAGAGGGGACCUUCCCCUCGGUAAUGGCGAAUGGGACCCA [C49A G59U], the self-cleavage is 0.945.
For the variant GGCCGGCAUGGUCCCAGCCUCCUCGCUGGCGCCGGCUGGGCAACAUUCAGAGGGGACCCUCCCCUCGGUAAUGGCGAAUGGGACCCA [C49A G59C], the self-cleavage was found to be 1.08.
On to GGCCGGCAUGGUCCCAGCCUCCUCGCUGGCGCCGGCUGGGCAACAUUCAGAGGGGACCGUCCCCUCGGUAAUGCCGAAUGGGACCCA [C49A G74C], for which the self-cleavage turned out to be 0.0755.
Then GGCCGGCAUGGUCCCAGCCUCCUCGCUGGCGCCGGCUGGGCAACAUUCGGAGGGGACCGUCCCCUCGGUACUGGCGAAUGGGACCCA [C49G A71C], with 0.302; and GGCCGGCAUGGUCCCAGCCUCCUCGCUGGCGCCGGCUGGGCAACAUUCGGAGGGGACCGUCCCCUCGGUAAUGGCGACUGGGACCCA [C49G A78C], with 0.262.
To GGCCGGCAUGGUCCCAGCCUCCUCGCUGGCGCCGGCUGGGCAACAUUCGGAGGGGACCGUCCCCUCGGUAAUGGCGAUUGGGACCCA [C49G A78U] belongs 0.138; to GGCCGGCAUGGUCCCAGCCUCCUCGCUGGCGCCGGCUGGGCAACAUUCGGAGGGGACCGUCCCCUCGGUAAUGGCGAAUGGGACGCA [C49G C85G], 0.712.
Consider GGCCGGCAUGGUCCCAGCCUCCUCGCUGGCGCCGGCUGGGCAACAUUCGGAGGGGACCGUCCCCUCGGUAAUGGCGAAUGGGACACA [C49G C85A], for which the self-cleavage was determined as 0.789.
As for GGCCGGCAUGGUCCCAGCCUCCUCGCUGGCGCCGGCUGGGCAACAUUCGGAGGGGACCGUCCCCUCGGUAAUGGCGAAUGGGACUCA [C49G C85U], the self-cleavage was found to be 0.912.
As for GGCCGGCAUGGUCCCAGCCUCCUCGCUGGCGCCGGCUGGGCAACAUUCAGAGGGGACCGUCCCCUGGGUAAUGGCGAAUGGGACCCA [C49A C66G], the self-cleavage was determined as 0.96.
To GGCCGGCAUGGUCCCAGCCUCCUCGCUGGCGCCGGCUGGGCAACAUUCGGAGGGGACCGUUCCCUCGGUAAUGGCGAAUGGGACCCA [C49G C61U] belongs 0.432.
To GGCCGGCAUGGUCCCAGCCUCCUCGCUGGCGCCGGCUGGGCAACAUUCGGAGGGGACCGUACCCUCGGUAAUGGCGAAUGGGACCCA [C49G C61A] belongs 0.848; to GGCCGGCAUGGUCCCAGCCUCCUCGCUGGCGCCGGCUGGGCAACAUUCAAAGGGGACCGUCCCCUCGGUAAUGGCGAAUGGGACCCA [C49A G50A], 0.929; to GGCCGGCAUGGUCCCAGCCUCCUCGCUGGCGCCGGCUGGGCAACAUUCAUAGGGGACCGUCCCCUCGGUAAUGGCGAAUGGGACCCA [C49A G50U], 0.816.
GGCCGGCAUGGUCCCAGCCUCCUCGCUGGCGCCGGCUGGGCAACAUUCGGUGGGGACCGUCCCCUCGGUAAUGGCGAAUGGGACCCA [C49G A51U]: the self-cleavage amounted to 0.554.
GGCCGGCAUGGUCCCAGCCUCCUCGCUGGCGCCGGCUGGGCAACAUUCGGAGGGGACCGUCCCGUCGGUAAUGGCGAAUGGGACCCA [C49G C64G]: the self-cleavage amounted to 0.308.
GGCCGGCAUGGUCCCAGCCUCCUCGCUGGCGCCGGCUGGGCAACAUUCGGAGGGGACCGUCCCCUCGGUAAUGGGGAAUGGGACCCA [C49G C75G]: the self-cleavage was determined as 0.299.
Turning to GGCCGGCAUGGUCCCAGCCUCCUCGCUGGCGCCGGCUGGGCAACAUUCAGAGGGGACCGUCCCUUCGGUAAUGGCGAAUGGGACCCA [C49A C64U], the self-cleavage was 0.831.
